One molecule from patent US9512196B2, “Short-form human MD-2 as a negative regulator of toll-like receptor 4 signaling” (Cedars-Sinai Medical Center, priority 2008, dated 2016) can be followed below.

The target in test [1] is T1, TLR4 (Homo sapiens, UniProt O00206).
T1 construct: expressed in transfected cells; host or cells: HEK293
As to the kind of experiment: IL-8 secretion by HEK293 TLR4 reporter cells after LPS. It is filed as cell-based. Here is the method:
(A) HEK-293 cells stably transfected with TLR4 and a NF-κB reporter gene were treated with supernatants containing either MD-2 or MD-2s as described in the examples herein. Cells were left untreated or stimulated with LPS for 24 h. Mean relative stimulation of luciferase activity±S.D. for a representative experiment, each performed in triplicate, is shown. (B) HEK-293 cells stably transfected with TLR4 and a NF-κB reporter gene were transiently transfected with plasmids encoding for either MD-2, MD-2s or CD14 as shown. 24 h later, cells were left untreated or stimulated with LPS (250 ng/ml) for 6 h. Mean relative stimulation of luciferase activity±SD for a representative experiment, each performed in triplicate, is shown. (C) and (D) Supernatants were also collected and measured for IL-8 secretion.
The requirement for MD-2s in LPS mediated NF-κB activation was assessed. It has been shown that the soluble form of wild-type MD-2 confers LPS responsiveness to cells expressing TLR4; therefore, it was investigated if soluble MD-2s was also bioactive. Culture supernatants were obtained from HEK293 cells transiently expressing control vector, MD-2, or MD-2s, and incubated with HEK293 cells stably transfected with TLR4 and an NF-κB-dependent luciferase reporter gene. […]

For test [2], the target named is T1, TLR4. As to the kind of experiment: Co-immunoprecipitation with Flag-tagged TLR4 in HEK293 cells. It is filed as binding. The conditions noted are these: Myc-tagged protein, anti-Flag co-immunoprecipitation. Here is the method: (§1) (A) Cells stably expressing CFP-tagged TLR4 were transiently transfected with plasmids encoding wild-type MD-2 (upper panels) or MD-2s (lower panels). 24 h later, cells were incubated with an anti-Myc antibody and cross-liked with Alexa 647-conjugated anti-mouse polyclonal secondary antibody. (B) HEK293 cells were transiently transfected with a plasmid encoding for Flag-tagged TLR4 (lane 2) and cotransfected with either a Myc-tagged MD-2 (lane 3) or a Myc-tagged MD-2s (lanes 1 and 4) expressing plasmid. Co-immunoprecipitation experiments were then performed using an anti-Flag antibody (lanes 2-4) or an IgG isotype control antibody (lane 1). Samples were fractionated by SDS-PAGE and immunoblotting with an anti-Myc antibody was performed. Experiment shown is representative of 4 separate experiments.
HEK 293 cells were seeded into 100 mm dishes (1.5×10^6) 24 h prior to transfection. Transfections were performed according to the manufacturer's instructions using lipofectamine. […] For immunoblotting, primary antibodies were detected using horseradish peroxidase-conjugated secondary antibodies, followed by enhanced chemiluminescence (Amersham Biosciences).
To address this possibility, co-localization studies to examine the cellular distribution of MD-2s with respect to TLR4 were performed. […] Next whether MD-2s is physically associated with TLR4 was assessed. […]

Test [3] has as its target T1, TLR4. As to the kind of experiment: Confocal co-localization with CFP-tagged TLR4 in HEK293 cells. It is filed as cell-based. The conditions noted are these: confocal analysis, anti-Myc staining. Here is the method: as §1
To address this possibility, co-localization studies to examine the cellular distribution of MD-2s with respect to TLR4 were performed. HEK293 cells stably expressing TLR4CFP were subsequently transiently transfected with a plasmid encoding either MD-2 (FIG. 4A, upper panel) or MD-2s (FIG. 4A, lower panel) and stained with an anti-Myc antibody. […] Next whether MD-2s is physically associated with TLR4 was assessed. […]

Test [4] relates to lung inflammation induced by LPS. As to the kind of experiment: LPS-induced lung inflammation in mice after in vivo plasmid transfection. Also on record: species or system mouse. Here is the method: (A) MD-2s expression can be detected following in vivo transfection. RNA was isolated from lung tissue of wild-type mice at 48 h post in vivo transfection with control vector (lane 1), Myc-MD2 (lane 2) or a plasmid encoding MycMD-2s (lane 3) and reverse transcribed into cDNA. RT-PCR using human MD-2-specific primers (lanes 1-3) or murine GAPDH primers (lanes 4-6), was then performed. (B-E) Wild-type mice were transfected with control vector (EV, open bars) or a plasmid encoding MD-2s (black bars) 48 h before being challenged intratracheally with PBS or 10 μg of LPS, for 24 h. MD-2s expression reduced (B) IL-6 concentration in bronchoalveolar lavage fluid (BALF), (C) KC concentration in the lung homogenate, and (D) recruitment of polymorphonuclear leukocytes (PMN) into the lung.

Where [5] appears, read: plasmid encoding MD-2s 48 h before 10 μg LPS intratracheally, 24 h, vs control vector.

T1 sequence (O00206 24-839): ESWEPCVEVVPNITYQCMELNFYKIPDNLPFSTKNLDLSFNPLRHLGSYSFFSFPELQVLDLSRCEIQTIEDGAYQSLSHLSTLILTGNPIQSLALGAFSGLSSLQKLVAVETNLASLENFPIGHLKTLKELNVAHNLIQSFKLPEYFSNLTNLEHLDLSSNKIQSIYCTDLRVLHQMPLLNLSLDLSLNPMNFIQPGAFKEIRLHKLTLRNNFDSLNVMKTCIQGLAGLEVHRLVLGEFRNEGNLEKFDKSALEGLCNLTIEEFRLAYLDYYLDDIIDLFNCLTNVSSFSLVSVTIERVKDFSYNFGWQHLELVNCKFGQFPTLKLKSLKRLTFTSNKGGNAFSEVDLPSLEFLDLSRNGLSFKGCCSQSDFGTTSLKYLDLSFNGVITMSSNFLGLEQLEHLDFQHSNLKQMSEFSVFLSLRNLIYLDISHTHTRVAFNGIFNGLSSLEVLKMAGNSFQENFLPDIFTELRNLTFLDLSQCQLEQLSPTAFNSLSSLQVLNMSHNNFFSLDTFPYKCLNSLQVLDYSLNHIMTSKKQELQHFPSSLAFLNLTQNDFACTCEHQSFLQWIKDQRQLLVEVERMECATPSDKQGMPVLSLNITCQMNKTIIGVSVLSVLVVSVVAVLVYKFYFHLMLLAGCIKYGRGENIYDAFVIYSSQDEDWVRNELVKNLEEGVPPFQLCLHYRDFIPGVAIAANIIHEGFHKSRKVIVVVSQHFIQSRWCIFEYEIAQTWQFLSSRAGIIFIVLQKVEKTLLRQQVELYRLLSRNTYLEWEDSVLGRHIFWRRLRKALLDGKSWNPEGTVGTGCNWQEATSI

B1: MD-2s: alternatively spliced isoform of human MD-2 lacking exon 2, with D38G substitution; expressed and secreted protein sequences in Table 1 (protein, listed as Homo sapiens)
chain 1: MLPFLFFSTLFSSIFTEAQKQYWVCNSSDASISYTYCGRDLKQLYFNLYITVNTMNLPKRKEVICRGSDDDYSFCRALKGETVNTTISFSFKGIKFSKGKYKCVVEAISGSPEEMLFCLEFVILHQPNSN
chain 2: EAQKQYWVCNSSDASISYTYCGRDLKQLYFNLYITVNTMNLPKRKEVICRGSDDDYSFCRALKGETVNTTISFSFKGIKFSKGKYKCVVEAISGSPEEMLFCLEFVILHQPNSN
In the case of B1, the “LPS-dependent IL-8 secretion conferred by soluble protein” value in test [1] (culture supernatants added to HEK293 TLR4 reporter cells) was “could not confer LPS responsiveness”. Further, the “LPS-mediated IL-8 secretion on transient expression” value in test [1] (plasmid transfected with CD14 into HEK293 TLR4/NF-κB reporter cells) was “unable to induce”. Moreover, the “Interaction with TLR4” value in test [2] is “direct interaction between MD-2s and TLR4 was observed”. In addition, the “Cellular distribution with respect to TLR4” value in test [3] is recorded as “same cellular distribution”. In test [4] (flow cytometry, control without MD-2s expression 66.7%), the “Percentage of GR-1+CD11b+ cells in the lung following LPS challenge” value was 26.1%. Further, in test [4] (setting [5]), the “IL-6 concentration in bronchoalveolar lavage fluid (BALF)” value was “reduced”, the “KC concentration in the lung homogenate” value is “reduced” and the “Recruitment of polymorphonuclear leukocytes (PMN) into the lung” value is “reduced”.
